Results: patent US12102653B2, “Ligand regulated protein-protein interaction system” (ST. ANNA KINDERKREBSFORSCHUNG, priority 2017, dated 2024)

Key:
RBP4 [1] = biological target: T1, RBP4 (Homo sapiens, UniProt P02753); conditions: ligand-induced conformational changes of human RBP4; cited from earlier work
RBP4 [2] = biological target: T1, RBP4; experiment: Surface plasmon resonance (SPR), RBP4 immobilized on chip; assay type: binding; parameters: Human His-tagged RBP4 (residues 19-201) in pPICZ-alpha-A vector; made in house; host or cells: Pichia pastoris KM71H (secreted); conditions: for dependence of affinity to RBP4 on the lipocalin-fold ligand A1120: SPR, presence (5 μM) and absence of A1120
Protocol: Surface plasmon resonance (SPR) is used to determine the affinity of the interaction between RBP4 and rcSso7d- or FN3-based lipocalin-fold binding interaction partners and is performed with BiacoreT200 (GE healthcare). The antigen (RBP4) is coated onto a chip and incubated with various concentrations of binder solution in PBS, followed by a dissociation phase in PBS only. All measurements are performed both in the presence and absence of A1120 or other ligands. Finally, kon, koff and Kd values are obtained by global fitting.
Surface plasmon resonance (SPR) was used to determine the affinity of the interaction between RBP4 and rcSso7d- or FN3-based lipocalin-fold binding interaction partners and was performed with BiacoreT200 (GE Healthcare). The antigen (RBP4) was coated onto a CM5 chip (GE Healthcare) and incubated with various concentrations of lipocalin-fold binding interaction partner solution in HBS-EP (GE Healthcare), followed by a dissociation phase in HBS-EP. […] Finally, Kd values (dissociation constants) were obtained by steady-state analysis. […] KD values were calculated by steady-state analysis (right diagram in A and C). One representative experiment out of four independent experiments is shown.

RBP4 [3] = biological target: T1, RBP4; experiment: Isothermal titration calorimetry (ITC) of binder-RBP4 interaction; assay type: binding; parameters: Human His-tagged RBP4 (residues 19-201) in pPICZ-alpha-A vector; made in house; host or cells: Pichia pastoris KM71H (secreted); conditions: presence (50 μM) and absence of A1120
Protocol: For the thermodynamic characterization of the interaction between RBP4 and rcSso7d- or FN3-based lipocalin-fold binding interaction partners, isothermal titration calorimetry (ITC) is conducted using an automated MicroCal PEAQ-ITC instrument (Malvern Instruments). The samples are centrifuged (17,000 g, 10 min, 20° C.) and filtered (0.1 μm Ultrafree-MC filter, Merck Millipore). RBP4 protein solution is applied to the sample cell and the respective binders are titrated with varying intervals. Different concentrations both for RBP4 and binders are used and in some experiments, binders are applied to the sample cell and RBP4 is titrated. The experiments are performed both in the presence and absence of the ligand A1120 or other ligands. Data analysis is performed with the MicroCal PEAQ-ITC analysis software.
For the thermodynamic characterization of the interaction between RBP4 and rcSso7d- or FN3-based lipocalin-fold binding interaction partners (in this case RBP4 binding interaction partners), isothermal titration calorimetry (ITC) was conducted using the PEAQ Isothermal Titration Calorimeter Automated (Malvern Panalytical). The samples were centrifuged (17000 g, 10 min, 20° C.) and dialysed against the same buffer (PBS). RBP4 protein solution was applied to the sample cell and the respective RBP4 binding interaction partners were titrated with varying intervals. Different concentrations both for RBP4 and RBP4 binding interaction partners were used. […] Data analysis was performed with the MicroCal PEAQ-ITC analysis software and the resulting data were fitted to a one-set-of-sites binding model. […] The signature plots show the thermodynamic parameters of the interaction between RBP4 and RS3. One representative experiment out of four independent experiments is shown. […] The integrated data were fitted to one-set-of-sites binding model to calculate the KD values in FIG. 18. Signature plots show the thermodynamic parameters of the interaction. One representative experiment out of four independent experiments is shown.

[4] = Differential scanning calorimetry (DSC) of RBP4 binding interaction partners; conditions: 80 μM protein, 20-110° C.
Protocol: The stability of RBP4-binding interaction partners is evaluated by determining the melting temperature (Tm) by differential scanning calorimetry (DSC) using MicroCal VP-DSC capillary cell microcalorimeter (MicroCal). Briefly, 30 μM protein solution is exposed to an increasing temperature ranging from 20-110° C. with a heating rate of 1° C./min. Buffer baseline is subtracted and the resulting data are normalized for protein concentration, followed by fitting with a non-two-state thermal unfolding model.
The thermal stability of RBP4 binding interaction partners was evaluated by determining the melting temperature (Tm) by differential scanning calorimetry (DSC) using the PEAQ Differential Scanning Calorimeter Automated (Malvern Panalytical). Briefly, 80 μM protein solution was exposed to an increasing temperature ranging from 20-110° C. with a heating rate of 1° C./min. Buffer baseline was subtracted and the resulting data were normalized for protein concentration, followed by fitting with a non-two-state thermal unfolding model.

[5] = Analytical size exclusion chromatography (SEC) of RBP4 binding interaction partners; assay type: physicochemical; conditions: PBS with 200 mM NaCl, 25° C.
Protocol: For analytical SEC analysis, a total amount of 25 μg rcSso7d or FN3 mutants in running buffer (PBS with 200 mM NaCl) is filtered through 0.1 μm Ultrafree-MC filter (Merck Millipore), applied to a Superdex 200 10/300 GL column (GE healthcare) connected to an HPLC prominence LC20 system (Shimadzu) and eluted with a flow rate of 0.75 mL/min at 25° C. In addition, multi-angle light scattering (MALS) is used for determining the molecular mass using WYATT Heleos Dawn8+ plus QELS, a refractive index detector RID-10A (Shimadzu) and a diode array detector SPD-M20A (Shimadzu).
For analytical SEC analysis, a total amount of 25 μg of RBP4 binding interaction partners in running buffer (PBS with 200 mM NaCl) was filtered through a 0.1 μm Ultrafree-MC filter (Merck Millipore), applied to a Superdex 200 10/300 GL column (GE healthcare) connected to an HPLC Prominence LC20 system (Shimadzu) and eluted with a flow rate of 0.75 mL/min at 25° C.

SPR binding signal to RBP4 (RBP4 [2]; absence of A1120, same RS3 concentrations as used with 5 μM A1120)	Molecule	effect of ligand on the RBP4-TTR interaction (RBP4 [1])	dependence of affinity to RBP4 on the lipocalin-fold ligand A1120 (RBP4 [2])	dependence of affinity to RBP4 on the lipocalin-fold ligand A1120 (RBP4 [3])	thermal stability (DSC analysis) [4]	folding and oligomeric state (SEC analysis) [5]
–	CC1=C(/C=C/C(C)=C/C=C/C(C)=C/C(=O)Nc2ccc(O)cc2)C(C)(C)CCC1 [Fenretinide, 15-[(4-hydroxyphenyl)amino]retinal]	dissociation from TTR	–	–	–	–
–	C/C=C(C)/C=C/C=C(C)/C=C/C1=C(C)CCCC1(C)C [axerophthene]	dissociation from TTR	–	–	–	–
–	CC(=O)OC/C=C(C)/C=C/C=C(C)/C=C/C1=C(C)CCCC1(C)C [retinyl acetate]	dissociation from TTR	–	–	–	–
–	CC1=C(/C=C/C(C)=C/C=C/C(C)=C/C(=O)O)C(C)(C)CCC1 [all-trans retinoic acid]	dissociation from TTR	–	–	–	–
–	CCNC(=O)/C=C(C)/C=C/C=C(C)/C=C/C1=C(C)CCCC1(C)C [N-Ethylretinamide]	dissociation from TTR	–	–	–	–
–	RS5: rcSso7d-based lipocalin-fold binding interaction partner binding RBP4 in an A1120-dependent manner (protein) ATVKFTYQGEEKQVDISKIKRVARYGQGIYFDYGEGGGAWGYGSVSEEDAPKELLQMLEKQ	–	strongly depend on the presence of the lipocalin-fold ligand	strongly depend on the presence of the lipocalin-fold ligand	stable proteins	well folded, monomeric proteins
–	RF2: FN3-based lipocalin-fold binding interaction partner binding RBP4 in an A1120-dependent manner (protein) VSDVPRDLEVVAATPTSLLISWYYPNASHAGYYRITYGETGGNSPVQEFTVPFSIRYTIATISGLKPGVDYTITVYAVTDYAYYYRLSEPISINYRTEIDKPSQ	–	strongly depend on the presence of the lipocalin-fold ligand	strongly depend on the presence of the lipocalin-fold ligand	–	well folded, monomeric proteins
almost no signal	RS3: rcSso7d-based lipocalin-fold binding interaction partner binding RBP4 in an A1120-dependent manner (protein) ATVKLTYQGEEKQVDISKIKRVARYGQNIYFSYDEGGGAYDYGAVSEKDAPKELLQMLEKQ	–	strongly depend on the presence of the lipocalin-fold ligand	strongly depend on the presence of the lipocalin-fold ligand	stable proteins	well folded, monomeric proteins
